Marks after values point to notes of the source that are not given here.
Experiments:
ob/ob mice = test: Oral (p.o.) administration of rhZAG to ob/ob mice; assay type: in vivo, mouse
Experimental: 50 ug per day of rhZAG was administered p.o. to Aston ob/ob mice. Oral dosing was achieved by assuming 5 mL/day consumption of water, and adding ZAG to achieve 50 ug per day dose based on that assumption. No attempt was made to correct for variations of consumption on a given day.
Experiment One (8 Day Oral ZAG Study): 50 ug of ZAG was administered p.o. daily in drinking water.
Experiment Two (8 Day Oral ZAG Plus Propranolol Study): 50 ug of ZAG administered p.o. daily, with and without propranolol. Propanolol blocks all of the effects of ZAG including decrease in body weight and blood glucose in the tolerance test, also blocking the rise in body temperature and the rise in plasma mouse ZAG, confirming that this occurs through a beta adrenergic receptor. […] It appears to do this by preventing the rise in mouse ZAG in the serum after oral administration of the rhZAG.
Experiment Three (Oral Study): ZAG administered p.o. daily over an extended time frame, with a recovery group split from the treated group beginning at 30 days (data not shown).

male Wistar rats = test: mature male Wistar rats, daily i.v. ZAG for 10 days: body weight, body composition, plasma metabolites; assay type: in vivo, rat
Experimental: Animal—Rats. Mature male Wistar rats (one year old from our own colony) weighing 540±82.5 g were housed individually and treated once daily i.v., with either ZAG in PBS (100 μl) (50 μg per 100 g body weight), or with PBS (100 μl) as a control. Both food and water intake and body weight were measured daily. Animals were given free access to food (Special Diet Services, Essex, UK) and water ad libitum. The animal experiment was carried out under the welfare conditions imposed by the British Home Office. After 10 days treatment the animals were terminated and the body composition determined. Animals were heated to 80-90° C. for 7 days until constant weight was achieved. The water content was then determined from the difference between the wet and dry weight. Lipids were extracted from the dry carcass using a sequence of chloroform:methanol (1:1), ethanol/acetone (1:1) and diethyl ether (120 ml of each) as described by Lundholm et al (14). The solvents were evaporated and the fat weighed. The non-fat carcass mass was calculated as the difference between the initial weight of the carcass and the weight of water and fat.
Serum Metabolite Determinations. Non-esterified fatty acids (NEFA) were determined using a Wako-ASC-ACOD kit (Wako Chemical GmbH, Neuss, Germany). Triglycerides were determined using a Triglyceride kit (Sigma Chemical Co., Poole, United Kingdom) and 3-hydroxybutyrate by a quantitative enzymatic determination kit (Sigma). Glucose was measured using a glucose analyser (Beckman, Irvine, Calif.) and glycerol was determined enzymatically using the method of Wieland as described in “Methods of Enzymatic Analysis” (Ed. Bergmeyer, H. U.) Vol. 3, pp1404-1409, published by Academic Press, London (1974).

[1] = tested on: β3-AR, β1-AR and β2-AR expression; test: Western blot of β-AR expression in tissues of ob/ob mice after 5 days ZAG; assay type: in vivo, mouse
Experimental: Western Blot Analysis. WAT, BAT, heart and gastrocnemius muscle were thawed, washed in PBS, and lysed in Phosphsafe™ Extraction reagent for 5 min at room temperature, followed by sonication at 4° C. The supernatant formed by centrifugation at 18,000 g for 5 min at 4° C. was used for Western blotting. Cytosolic protein (5 μg for UCP's and 20 μg for β-AR) was resolved on 12% sodium dodecylsulphate polyacrylamide gels by electrophoresis at 180V for about 1 h and transferred on to 0.45 μm nitrocellulose membranes, which had been blocked with 5% (w/v) non-fat dried milk (Marvel) in Tris-buffered saline, pH 7.5, at 4° C. overnight. Prior to adding the primary antibodies membranes were washed for 15 min in 0.1% Tween 20-buffered saline. Both primary and secondary antibodies were used at a dilution of 1:1000. Incubation was for 1 h at room temperature and development was by ECL. Blots were scanned by a densitometer to quantify differences.

[2] = tested on: epididymal adipocytes of male Wistar rats; test: Uptake of 2-deoxy-D-glucose into epididymal adipocytes of ZAG-treated rats; assay type: in vivo, rat; conditions: rats treated for 10 days
Experimental: Glucose Uptake into Adipocytyes. Isolated adipocytes (5×10^4) were washed twice in 1 ml Krebs-Ringer bicarbonate buffer, pH 7.2 (KRBS) and further incubated for 10 min at room temperature in 0.5 ml KRBS containing 18.5 MBq 2-[1-^14C] deoxy-D-glucose and non-radioactive 2-deoxy-D-glucose to a final concentration of 0.1 mM. Uptake was terminated by the addition of 1 ml ice-cold glucose-free KRBS, and the cells were washed three times with 1 ml KRBS, lysed by addition of 0.5 ml 1M NaOH and left for at least 1 h at room temperature before the radioactivity was determined by liquid scintillation counting.

[3] = tested on: rat epididymal adipocytes; test: Lipolytic activity in rat adipocytes; assay type: cell-based; conditions: concentrations between 233 and 700 nM
Experimental: Lipolytic Activity in Rat Adipocytes—White adipocytes were prepared from finely minced epididymal adipose tissue of male Wistar rats (400 g) using collagenase digestion, as described (Beck S A, et al. Production of lipolytic and proteolytic factors by a murine tumor-producing cachexia in the host. Cancer Res 47:5919-5923, 1987). Lipolytic activity was determined by incubating 10^5-2×10^5 adipocytes for 2 h in 1 ml Krebs-Ringer bicarbonate buffer, pH 7.2, and the extent of lipolysis was determined by measuring the glycerol released (Wieland O. Glycerol UV method. Methods of Enzymatic Analysis, edited by Bergmeyer H U. Academic Press, London, pp 1404-1409, 1974). Spontaneous glycerol release was measured by incubating adipocytes alone. Lipolytic activity was expressed as μmol glycerol released/10^5 adipocytes/2 h.

[4] = 50 ug p.o. daily in drinking water, 8 days

B1: ZAG: recombinant full length human zinc-α2-glycoprotein (SEQ ID NO: 1) secreted by transfected HEK293F cells; lipid mobilizing factor (protein, listed as Homo sapiens)
chain: QENQDGRYSLTYIYTGLSKHVEDVPAFQALGSLNDLQFFRYNSKDRKSQPMGLWRQVEGMEDWKEDSQLQKAREDMETLKDIVEYYNDSNGSHVLQGRFGCEIENNRSSGAFWKYYYDGKDYIEFNKEIPAWVPFDPAAQITKQKWEAEPVYVQRAKAYLEEECPATLRKYLKYSKNILDRQDPPSVVVTSHQAPGEKKKLKCLAYDFYPGKIDVHWTRAGQVQEPELRGDVLHNGNGTYQSWVVVAVPPQDTAPYSCHVQHSSLAQPLVVPWEAS
outcome of oral ZAG (ob/ob mice; [4]): weight loss, increase in body temperature and a lowering of urinary glucose occurred
rhZAG in serum after oral administration (ob/ob mice; [4]): absence of rhZAG in serum
endogenous murine ZAG after oral rhZAG (ob/ob mice; 50 ug p.o. daily, 8 days): increase in murine ZAG in serum and WAT
body weight lost (ob/ob mice; p.o. daily, half way through the extended study): 13.5%
persistence of orally administered rhZAG in the stomach (ob/ob mice; p.o., ob/ob mice): ≥ 24 h
time before 50% reversion of urinary glucose to control after treatment stop (ob/ob mice; recovery group): 12 days
time to significant elevation in body temperature (male Wistar rats; after the first administration): ≤ 24 h
Final weight (male Wistar rats; male rats, after 10 days): 525 ± 1 g
Weight change (male Wistar rats; male rats, after 10 days): -5 ± 1 g
elevation in body temperature (male Wistar rats; rats): 0.4 °C
Glucose (plasma) (male Wistar rats; rats treated for 10 days): 16.2 ± 2.1^c mmol/l
Glycerol (plasma) (male Wistar rats; rats treated for 10 days): 450 ± 51^c umol/l
NEFA (plasma) (male Wistar rats; rats treated for 10 days): 0.26 ± 0.06^b mEq/l
Trigylcerides (plasma) (male Wistar rats; rats treated for 10 days): 1.1 ± 0.09^a mmol/l
decrease in plasma levels of NEFA (male Wistar rats; rats, 10 days): 55%
increase in plasma glycerol concentration (male Wistar rats; rats, 10 days): 50%
reduction of plasma levels of glucose and triglycerides (male Wistar rats; rats, 10 days): 36-37%
decrease in body weight (male Wistar rats; rats, after 10 days, 50 μg/100 g b.w. i.v. daily): 5 g
expression of β1-AR or β2-AR in gastrocnemius muscle or WAT [1]: no change in expression
increase in β3-AR expression in BAT [1]: 89%
increase in β3-AR expression in WAT [1]: 85%
β3-AR expression in gastrocnemius muscle [1]: two-fold increase
uptake of 2-deoxyglucose into epididymal adipocytes [2]: significant increase
glycerol release from rat epididymal adipocytes [3]: dose-related increase in glycerol release
